“Also recorded” adds a separate entry of the source. Marks after values point to notes of the source that are not given here.

The values that follow come from patent US20070081991A1, “Compositions and methods for modulation of immune responses” (Pepgen Corporation, priority 2001, published 2007).

For experiment [1] the following is noted: mice; cited from earlier work.
In the next experiment the target is T1, Qa-1^b (Mus musculus, UniProt P06339).
T1 sequence (P06339 21-357): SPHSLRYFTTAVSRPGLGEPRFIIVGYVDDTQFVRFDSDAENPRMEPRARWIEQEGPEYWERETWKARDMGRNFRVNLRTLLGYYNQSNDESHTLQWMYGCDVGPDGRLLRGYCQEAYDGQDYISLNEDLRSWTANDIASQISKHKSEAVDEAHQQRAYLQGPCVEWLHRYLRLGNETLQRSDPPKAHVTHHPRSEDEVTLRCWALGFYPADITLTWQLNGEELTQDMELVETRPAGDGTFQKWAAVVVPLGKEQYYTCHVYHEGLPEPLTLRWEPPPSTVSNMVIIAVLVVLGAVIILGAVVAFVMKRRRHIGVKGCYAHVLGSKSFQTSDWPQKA
T1 sequence (P01887 21-119 partner): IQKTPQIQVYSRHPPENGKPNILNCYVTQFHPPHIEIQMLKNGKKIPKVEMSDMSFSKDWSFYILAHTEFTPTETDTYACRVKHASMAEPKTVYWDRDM
To be noted: cited from earlier work.

Experiment [2] concerns HLA-E. In words: HLA-E stabilization assay (cell surface expression by flow cytometry). To be noted: overnight incubation with peptide at 26° C. It is filed as cell-based, human. Here is the method:
Synthetic peptides, purchased from Research Genetics, were dissolved in PBS. The peptides used were B7sp ([…]) (SEC ID NO: 3), hsp60sp ([…]) (SEC ID NO: 2), B7 R5V ([…]) (SEC ID NO: 14), hsp60 V5R ([…]) ([…]), and P18I10 ([…]) (SEC ID NO: 113) (all from Research Genetics, Huntsville, Ala.). Cells and their HLA-E transfected derivatives were incubated with synthetic peptides (3-300 μM) at 26° C. for 15-20 hours in serum-free AIM-V medium (GibcoBRL, Paisley Scotland) at a concentration of 1-3.10^6 cells/ml. Cells were then harvested, washed in PBS, stained with mAbs and analyzed by flow cytometry. Cells were subjected to stress by allowing them to grow at increasing cell density.
To test whether the hsp60-derived peptides were able to bind HLA-E, stabilized HLA-E cell surface expression was stabilized with the different synthetic peptides, by overnight incubation at 26° C. For this purpose MHC class I-deficient cell lines such as 721.221 (which lack HLA-A, -B, -C, and -G, but express HLA-E and -F intracellularly), as well as K562 cells transfected with HLA-E*01033 (K562-E*01033) or HLA-E*0101 were employed. The 721.221 cells and HLA-E transfected, but not untransfected, K562 cells express low levels of HLA-E at the cell surface during normal cell growth.

The target in experiment [3] is T2, HLA-E (Homo sapiens, UniProt P13747).
T2 construct: HLA-E*0101 and HLA-E*01033 cDNA encoding plasmids (pcDNA3) were provided by Drs; M. Ullbrecht and E. Weiss; expressed in transfected cells; host or cells: K562
The experiment can be described thus: Peptide competition with B7sp in cytotoxic assay on K562-E*01033 cells. The class given is cell-based. To be noted: 0.1 μM B7sp together with increasing concentrations of competing peptide; effector Nishi. Here is the method:
(§1) K562-E*01033 cells were incubated with the different peptides at 26° C. for 15-20 hours, and then tested in 2 h 51Cr release assays. In order to ensure that the levels of HLA-E with a protective peptide, and not the HLA-E levels as such, provided the protective capacity we kept the non-protective peptides, but omitted the B7sp, during the assays. (a) Killing of K562-E*01033 cells by NKL (left) or Nishi (right) after incubation with […], 300 mM hsp60sp, or 30 mM B7sp. 50 mM of P18I10 control peptide and hsp60sp was also included during the assays. Data from an E:T ratio of 30:1 is shown. The figure represents the mean of at least three experiments. Error bars indicate standard error of the mean. (b) Killing of K562-E*01033 cells by NKL (left panel) or Nishi (right panel) incubated over night with 30 mM 7sp, 300 mM P18I10 (pCtrl), 300 mM B7 R5V, 300 mM hsp60sp, or 300 mM hsp60 V5R. 50 mM of all peptides, except B7sp, were included during the assay. Peptide concentrations were chosen according to FIG. 5c. The figure represents the mean of at least three experiments. Error bars indicate standard error of the mean. (c) HLA-E cell surface expression by K562-E*01033 after the assay. A cold target preparation was prepared in parallel as in (a) and (b), and then stained with DX17 mAb (anti-HLA class I), followed by RPE-conjugated goat-anti-mouse IgG. One representative example out of more than 5 is shown. Note that, as in (a) and (b), 50 mM of all peptides, except for B7sp, was present during the time of the assay, explaining the lower HLA-E expression with B7sp compared to Hsp60sp, Hsp60 V5R and B7 R5V. (d) Killing of K562-E*01033 cells by Nishi after incubation for 30 min at room temperature with 0.1 mM B7sp and increasing amounts of competing peptides (hsp60sp, hsp60.4, B7 R5V and P18I10). All the peptides were kept throughout the assay
Briefly, K562-E*01033 cells were incubated with 0.1 μM B7sp together with increasing concentrations of competing peptides and tested in cytotoxic assays.

The subject of another experiment is CD94/NKG2A+ NK cells. To be noted: peptide presented by Qa-1^b; cited from earlier work.
The test system of experiment [4] is CD94/NKG2A+ NK cell lines Nishi and NKL. The experiment can be described thus: NK cell-mediated cytotoxicity, 2 h 51Cr release, peptide-loaded K562-E*01033 targets. It is filed as cell-based, human. To be noted: targets incubated overnight at 26° C. with peptide; effectors NKL and Nishi. Here is the method: as §1
NK cell-mediated cytotoxicity was measured using a 2 hours standard ^51Cr radioisotope release assay. Briefly, target cells were incubated for 15-20 hours at 26° C. with the various peptides at concentrations ranging from 1-300 μM, and then labeled with ^51Cr. Peptides were washed away prior to setting up the assays, except in some experiments where the non-protective hsp60sp, B7 R5V and hsp60 V5R was kept throughout the assay to assure higher levels of HLA-E expression, as compared to targets incubated with the protective B7sp. In mAb blocking experiments, cells were preincubated with mouse serum, or an irrelevant isotype matched antibody to block Fc-receptors. Blocking of either target or effector cells with mAbs was performed at 4° C., and the antibodies were also included during the assays. […]

Experiment [5] deals with HLA-E. The experiment can be described thus: HLA-E stabilization assay (cell surface expression by flow cytometry). It is filed as cell-based, human. The settings on record: at 37° C.
Experiment [6] deals with T3, HLA-E*01033 on transfected K562 cells (K562-E*01033) (human).
T3 construct: whole, on cells; MHC class I molecule that takes up added peptide in the 26 C stabilisation assay
The experiment can be described thus: HLA-E surface stabilisation on transfected K562 cells, synthetic peptide overnight at 26 C, flow cytometry. How it is done:
(§2) Synthetic peptides, purchased from Research Genetics, were dissolved in PBS. […] Cells and their HLA-E transfected derivatives were incubated with synthetic peptides (3-300 μM) at 26° C. for 15-20 hours in serum-free AIM-V medium (GibcoBRL, Paisley Scotland) at a concentration of 1-3.10⁶ cells/ml. Cells were then harvested, washed in PBS, stained with mAbs and analyzed by flow cytometry. Cells were subjected to stress by allowing them to grow at increasing cell density.
(In general: Flow cytometry measures light scatter and fluorescence of single cells or particles in a stream.)

In experiment [7] the target is T3, HLA-E*01033 on transfected K562 cells …. In words: HLA-E surface stabilisation on K562-E*01033 cells, DX17 staining, flow cytometry. Here is the method:
as §2

Experiment [8] addresses T4, HLA-E on cells, allele not told (human, UniProt P13747 22-358; P61769 21-119).
T4 construct: whole, on cells
The experiment can be described thus: summary of the examples.

Experiment [9] has as its target T3, HLA-E*01033 on transfected K562 cells …. In words: HLA-E surface expression on K562-E*01033 cells after the cytotoxic assay, DX17 staining, flow cytometry.
Experiment [10] addresses T4, HLA-E on cells, allele not told. In words: HLA-E surface stabilisation on transfected K562 and 721.221 cells, flow cytometry. Here is the method:
as §2

For experiment [11] the target is unchanged. The experiment can be described thus: HLA-E surface stabilisation with synthetic peptide overnight at 26 C, flow cytometry. How it is done: as §2
The mark [12] stands for this setting: K562 cells transfected with HLA-E*01033 or HLA-E*0101.

For `CN(C(=O)c1c(O)c2ccccc2n(C)c1=O)c1ccccc1` [linomide], in experiment [1], the “protection from developing EAE” value is recorded as “can protect mice from developing disease”. Regarding AMAPRTLLL [qdm, reference compound], the “binding to Qa-1^b” value with Qa-1^b is reported as “known to form relatively stable Qa-1b/peptide complex”. For the molecule “GMKFDRGYI [hsp60.4, human hsp60 residues 216-224]”, the figures for the “HLA-E cell surface expression (stabilization)” value (from here on “HLA-E cell surface expression”) in the experiment on HLA-E [2] (721.221 cells) and in the experiment with HLA-E [2] (setting [12]) were “capable of stabilizing HLA-E molecules” and “capable of stabilizing HLA-E molecules; also recorded: can bind to HLA-E”, respectively. Moreover, in the experiment with HLA-E [3], the “competition with B7sp (loss of HLA-E mediated protection from killing)” value is listed as “not able to compete with B7sp; also recorded: could not compete with the B7sp for binding to HLA-E”. For the same molecule, the “binding to Qa-1^b” value with Qa-1^b is recorded as “bind to mouse Qa-1^b molecules; also recorded: could bind to Qa-1^b; also recorded: binds to Qa-1^b”. In addition, in the experiment with Qa-1^b (even when mixed in 100,000-fold excess with 1 mM Qdm), the “competition with Qdm-peptide for binding to Qa-1^b” value was “failed to compete with the protective Qdm-peptide for binding to Qa-1^b; also recorded: nor could it reportedly compete for binding to Qa-1^b”. Also, the “protection from CD94/NKG2A+ NK cells” value with CD94/NKG2A+ NK cells was “did not induce protection from CD94/NKG2A^+ NK cells; also recorded: fail to protect the cells from NK cell mediated lysis”. On to “L MLQGVDLL (N-terminal Leu) [hsp60.2, human hsp60 residues 39-47]”, for which, in the experiment on HLA-E [2] (setting [12]), the “HLA-E cell surface expression” value is “HLA-E stabilization was not observed”. Regarding “QMRPRSRVL [hsp60 V5R, hsp60sp with valine to arginine at position 5]”, the “protection of K562-E*01033 cells from killing by NK cells” value (“protection of K562-E*01033 cells” below) in experiment [4] is recorded as “not sufficient to restore protection from killing”. In the case of QMRPVSRVL [hsp60sp], in the experiment on HLA-E [2] (setting [12]), the “HLA-E cell surface expression” value is on record as “substantial increase in HLA-E expression; also recorded: stabilization of HLA-E”. Moreover, in [4], the “protection of K562-E*01033 cells” value is given as “did not result in any significant protection; also recorded: fails to protect K562-E*01033 cells from killing by NK cells”. Moreover, the “competition with B7sp (loss of HLA-E mediated protection from killing)” value in the experiment with HLA-E [3] is listed as “could interfere with HLA-E mediated protection by competing with MHC class I signal peptides; also recorded: became more susceptible to killing with increasing concentrations of hsp60sp”. Also, the “dissociation of HLA-E/peptide complexes” value with HLA-E [5] was “dissociated faster than the HLA-E/B7sp”. As to RGPGRAFVTI [P18I10, reference compound], the “competition with B7sp (loss of HLA-E mediated protection from killing)” value in the experiment with HLA-E [3] is recorded as “remained protected from killing at all concentrations tested”. For “VMAPVTVLL [B7 R5V, B7sp with arginine to valine at position 5]”, the “HLA-E cell surface expression” value with HLA-E [2] (setting [12]) is “expressed high levels of HLA-E”. The “protection of K562-E*01033 cells” value in [4] was “efficiently killed by CD94/NKG2A^+ NK cells”. Moreover, the “competition with B7sp (loss of HLA-E mediated protection from killing)” value in the experiment with HLA-E [3] is “even stronger competitor than hsp60sp”.

Turning to “VMLAVDAVI [hsp60.3, human hsp60 residues 144-152]”, the “HLA-E cell surface expression” value in the experiment on HLA-E [2] (setting [12]) is “HLA-E stabilization was not observed”.

B1: B7sp (VMAPRTVLL), peptide from the leader sequence of HLA-B*0701 (peptide)
peptide: VMAPRTVLL
notes: also called B7 signal peptide
Regarding B1, in [6], the binding result is listed as “binds”.

B2: B7 R5V (VMAPVTVLL) (peptide)
peptide: VMAPVTVLL
Turning to B2, the binding result in experiment [7] is listed as “binds”.

B3: hsp60sp (QMRPVSRVL), nonamer from the signal sequence of human hsp60 (peptide)
peptide: QMRPVSRVL
notes: Synthetic peptide (Research Genetics); also called hsp60 signal peptide; hsp60 leader peptide
Turning to B3, the binding result in experiment [8] and in [6] was “binds” throughout.

B4: hsp60 V5R (QMRPRSRVL) (peptide)
peptide: QMRPRSRVL
For the molecule B4, the binding result in experiment [9] is “binds”.

B5: hsp60.4 peptide (GMKFDRGYI) (peptide)
peptide: GMKFDRGYI
As for B5, the binding result in [10] is “binds”.

B6: hsp60.3 peptide (VMLAVDAVI) (peptide)
peptide: VMLAVDAVI
For the molecule B6, the binding result in experiment [11] is “no binding”.

B7: hsp60.2 peptide (LMLQGVDLL) (peptide)
peptide: LMLQGVDLL
As to B7, the binding result in experiment [11] was “no binding”.
